# From the DeepSol protein solubility set
# Assay: soluble on expression in E. coli; label from the status in PepcDB or PDB records
row,Sequence,soluble on expression in E. coli
1,MLYFVLCDLKFNQFSRYPMSYQKIELSISLSLDSPKLDESDFILLSVKYLEKSLGKKKEFSGFFEDIEKLYFKQNYKEAIEKILDFCKKNESLLSEQVVQRLAEVAPRLKSNPKDNESRRLYETLYADHLESVIKQESDLSVFNELRDSYNAVKPEYAVTHETEIKTLDEAKQFILSFVMLNDNVELPLKAQSERYPKKDRSREELGNTPSANPGIMKPNSPNFTDNLVPVRDVPKIAINEKVAGGYSKTKPTTPFVASLSGTTYSLMVVLTDYIEKHKTDKDIEKKVNQIINLWISSYIKEGYHSYSEVVDVLTEPFLQSIFDKANIKLNYGVLDDTHAEFRKAQDYVFGLTIQSAMHHELQERFKNKEKLQEEVKNFESGLNKLNQNVENTGRHREALNKLNEVFQDWSAGKKSYDAFKSESNQLIHDIESEEQKSNRGLGSMLKNLGNYLLYLITLRFLKEDYPKPSSPVTMLVTELRGTLEQIDHFHKTSLSLKKATQPDPKNTSSSDETADVRKSAVDTDKPSKNQDSEVKKTLDSEQLEEVQRQDDKSARLQ,not soluble
2,MKAKDVKLLARYLEMLKDPNIIKTQDVFTVIRYISYNSYGKTMAWNWIQLNWDYLVSRFTINDRYLGRIVTIAEPFNTELQLWQMQSFFAKYPNAGAGAKPREQVLETVKNNIEWLNVNRQSIREWFASLP,not soluble
3,AIAHGVEFAPLERQHGSQVLALLRGTLLVPLPRLHQRLEEAYERDARLGLAQVALCRLAGNAEKVVGVLLARVATRRTCCAQVYIDAVAVDAVFQGQGIGSRLLLRVLTPCLPDGLEVREVFLHTPLQATELVAFYRSCGFESDDEVIDNYYPRRWMPQAQALVLRWRPPTAAQHQHEERKGPQDADVS,soluble
4,MSLTIYHPAELPQRQAEKSPNKTIIKYYDRESKQWRNISWSKFAAGVMNAAKALAEIGLESGERIGIYSPNMVHCLYTELGAFAMRGVVVPLYATSSPEQLRFIVEDSSMETLFVGEQFQYNNAYRVQKEYGTLKRIVVFDERVVLNPEDKTSKYFSEFVRLGDSMPNETKVKVSSREAIPSDPALIIYTSGTSGRSKGVLLLHSNLMYQMKVHSEHIPVYGPGELSIAFLPMSHIFEKAWTLFCLTTGTRIAILRDPKKVLEALPQIRPSLMCNVPRFWEKVYQGVNEKMASSPRILKGVYRRAMAVGQRYRLDYWNEGKRAPLLLSMQYAFYNCTIFTLLKRVLGLQRGRYFPTAGAPLSDEINIFLQSVNIPIIVGYGLSETTATVSFYPQRGFKIGSMGKVMPGLDARIDPDNNEILVKGESVMSEYYNLPEETAGAFTPDGYFRTGDAGRMDPDGTLYFLERIKDLYKTANGKYIAPQMIEGMLTKDPIIEQIAVIGDRFKYVSALVYPNWELVRQAAIKRGLEQAREGHHHHHH,not soluble
5,MDVSDSIDWSKMTLQKISVRIEGHATSVSLEQPFLDILKTIARKKGQSLAFIITDIDSKRPQQVNLSSSLRIYALQSVLIQRL,not soluble
6,LNHETITKRTLLSSLMETNSLNYPNQVKLSERLAELYGASFGIGVSKKGNQHWFNISMNIVNDHYLQDSQVLAEAVDFLKEIIFAPNIQAGQFEAETFQREKENLKAYLESIVED,not soluble
7,MSLTDVSRILKEARDQGRLTTLDYANLIFDDFMELHGDRHFSDDGAIVGGLAYLAGQPVTVIGIQKGKNLQDNLARNFGQPNPEGYRKALRLMKQAEKFGRPVVTFINTAGAYPGVGAEERGQGEAIAKNLMEMSDLKVPIIAIIIGEGGSGGALALAVADQVWMLENTMYAVLSPEGFASILWKDGSRATEAAELMKITAGELYKMGIVDRIIPEHGYFSSEIVDIIKANLIEQITSLQAKPLDQLLDERYQRFRKYEGHHHHHH,not soluble
8,MEWIERLNKAMSYIEEHITEEIDFEQTAKIACCSAYHFQRMFTYMAGIPLSEYIRRRRMTLAAVELQSSDEKVIDIALKYGYASPTAFNRAFQSVQGITPSAAKKKGTPVKSYPPLSFAITIKGVEGMNYRIEEKEAFRIIGIAQSMSKNLEENFAVVPQMWGKAAADGTIQKLASMIEGQPAGLLGVSICNNEEDWRYFIAVSGTRPAEAPFEEYRVPASTWAVFPGTGTNLSVQDLERRIVTEWLPTSGYEYGSAPDIEVYISPNPENAKYEVWIPVVKKQ,not soluble
9,MSLNKKIILLADDDRDDIEMFCEALEMVNENVICECAENGDQAWRMLNDNNEKPQLIFLDINMPIMNGWECLKLIKKDENYQDIPVIMISTSSHKNDMETASKLGALGYFVKPNDFNDLKSMLKIITSNEGTDEGHHHHHH,soluble
10,MDPVFDFEDALDQTEMAQLAVDELKKIPEVNTLFAERWLPAPFNLDDLAKLPEGTLGHVYAIEMKARGFDPYFYKKVPVVDDISYLKMLWRSTHDIYHVVAGFDTDGIGEIGLQAFVLAQTPIPISVMLVSFGMVMTSLYQPAKFQDLMAEIARGYSLGSHTPRKLIAQKWDQFWDVPVIEIRECLGMNTVKQRERALEHHHHHH,soluble
11,MRVYYYMNIEELKRVIKDQREYLESLEKQKIIERELPFNVEQYLSKPNILAILGVRRSGKSTLGYLLVREKNFAYIDFSDDRLVNFTDFDTLTKAFYELYGDFTHVLIDEPQYVNGWELFVNRLRKEKSVIITGSNSSLLSGELASALTGRHVDLILFPFSFKEYLTFRGVKVDLYSTKSISLIKNELENYLKEGGFPETLSLGKRIIPSIYNDIITKDVIGRYKIRDVVKFKEFVNSMVKYYSTEISVRKLANLLKISTRTIEEWLNAIQESYLLFFVRRYSRSPKQFNGQRKVYVIDAGIVNYLTSFSYGGLMENVVAIQLLRKNQLEGIYYLRGEDYEVDFVDEKNGELIQVSYVSSQDEINRNEIRSLVKGSQITEFNKLTIVSWDLEDEIIVEGKKIRIVPLWKYLI,soluble
12,MVNNSKTILITGCSHGGIGYATAVHLKNLGHRVFASARQQKDVEALSQEGFETYLIDVTNYEYIDNALADILNKTGGSLDVIFNNAGYGQAGALEDIDTKFLKQQFETNVFGLHNLTYKALKIMRKQGYGKIIQHSSVLGLVAMKYRGAYNASKYAIEGLTDTMRLELRDSNIFITSLNTGPITSKFRENSIKTITNVNYDSSVHKQQYEKILARQHKKVPFNEPAISVAKVVEKIINCDKPKPRYYITKATWIMASLKRILPTNILDNFLNRY,not soluble
13,MTDVTSPVVDEKPCFGANPQIFKLGLGKQHILAHDIGQGSQCRNLPTCRCEGLDLHFWRKMCKNCGCRMDEHDVVLPNEFDHAQIVIGRLFGAREHFEKVLTKPGMYKPNEQNETKENNMMSTRSQPTAVYNYKMASSDSESERGGSNNKENVQYAWAPLPDKNLVSRYMKALPEDERPLVGSKGEQNRKSRLQFQLPLYDCNVEDARFVEEKDVKTLQNFVENVRNNVIGVGRVVEIGKDSDNYGDNENTNEFEKSMTAALKGLKIGETDCKDCNEMMETGDIGVECHHHSTTDTYHPNCFRCETCRQLLVDNIYFFYKNKYYCGRHYADQLYPRCAGCDELIFANEYTFAEEKSWHFDHFACYKCDFKLGGSRYMTRDENPFCLDCYLKHFAKTCDTCQSKIGPDEKRLNYNETHWHAEERCFQCVQCKMNLIGKKFMLKNHKLLCSSQCKANYNSANPDDQL,not soluble
14,MMSSGPLDPSDVTLFTSYPSPIVVPLEFIEEQSKSSREELEIDESGLYIMSKALEEFMRTVMRGATQNGSRLLDYDSIAEFFANSEFRALKDFFPERVRFDEIESEILPTRATGPSNSS,not soluble
15,MAHHHHHHGTEKTPDDVFKLAKDEKVEYVDVRFCDLPGIMQHFTIPASAFDKSVFDDGLAFDGSSIRGFQSIHESDMLLLPDPETARIDPFRAAKTLNINFFVHDPFTLEPYSRDPRNIARKAENYLISTGIADTAYFGAEAEFYIFDSVSFDSRANGSFYEVDAISGWWNTGAATEADGSPNRGYKVRHKGGYFPVAPNDQYVDLRDKMLTNLINSGFILEKGHHEVGSGGQAEINYQFNSLLHAADDMQLYKYIIKNTAWQNGKTVTFMPKPLFGDNGSGMHCHQSLWKDGAPLMYDETGYAGLSDTARHYIGGLLHHAPSLLAFTNPTVNSYKRLVPGYEAPINLVYSQRNRSACVRIPITGSNPKAKRLEFRSPDSSGNPYLAFSAMLMAGLDGIKNKIEPQAPVDKDLYELPPEEAASIPQTPTQLSDVIDRLEADHEYLTEGGVFTNDLIETWISFKRENEIEPVNIRPHPYEFALYYDV,soluble
